From publication PMC10790764

Target: fusion protein F of hMPV A2-GFP (CAN97-83) on infected cells (human metapneumovirus A2 (CAN97-83))

- other: 9 nM
B1: sdHMPV12 (VHH)
VHH: QVQLQESGGGLVQPGGSLRLSCAASGVSLAWYAIGWFRQAPGKDREGISCISASDDSTYYRDSVKGRVTISRDNGRNTVLLQMNSLKPEDTAVYYCATLRANYCSGPPTLGPYLGQGTQVTVSS
